Experiment: soluble on expression in E. coli; label from the status in PepcDB or PDB records

Sequence	soluble on expression in E. coli
MFSIDDVAKQAQSLAGKGYETPKSNLPSVFRDMKYADYQQIQFNHDKAYWNNLKTPFKLEFYHQGMYFDTPVKINEVTATAVKRIKYSPDYFTFGDVQHDKDTVKDLGFAGFKVLYPINSKDKNDEIVSMLGASYFRVIGAGQVYGLSARGLAIDTALPSGEEFPRFKEFWIERPKPTDKRLTIYALLDSPRATGAYKFVVMPGRDTVVDVQSKIYLRDKVGKLGVAPLTSMFLFGPNQPSPANNYRPELHDSNGLSIHAGNGEWIWRPLNNPKHLAVSSFSMENPQGFGLLQRGRDFSRFEDLDDRYDLRPSAWVTPKGEWGKGSVELVEIPTNDETNDNIVAYWTPDQLPEPGKEMNFKYTITFSRDEDKLHAPDNAWVQQTRRSTGDVKQSNLIRQPDGTIAFVVDFTGAEMKKLPEDTPVTAQTSIGDNGEIVESTVRYNPVTKGWRLVMRVKVKDAKKTTEMRAALVNADQTLSETWSYQLPANEVEHHHHHH	soluble
VPWEDVFKSFDPNPLAAGTIAQVHRATLETGDRVVVKVQRPTARADIEQDLALFEMFAEKVGKRPALNQVINMEDVFKHLSTSLHRELDFRQEANNIERMRTVLADYDRLAVPSIHWDLS	not soluble
MDQPWNANIHYDALLDAMVPLGTQCVLDVGCGDGLLAARLARRIPYVTAVDIDAPVLRRAQTRFANAPIRWLHADIMTAELPNAGFDAVVSNAALHHIEDTRTALSRLGGLVTPGGTLAVVTFVTPSLRNGLWHLTSWVACGMANRVKGKWEHSAPIKWPPPQTLHELRSHVRALLPGACIRRLLYGRVLVTWRAPVLEHHHHHH	not soluble
MGHHHHHHSHMAVWIQAQQLQGEALHQMQALYGQHFPIEVRHYLSQWIESQAWDSVDLDNPQENIKATQLLEGLVQELQKKAEHQVGEDGFLLKIKLGHYATQLQNTYDRCPMELVRCIRHILYNEQRLVREANNGSSP	not soluble
MLALPAEFEQFHWMVDMVQNVDMGLIVINRDYNVQVWNGFMTHHSGKQAHDVIGKSLFEIFPEIPVEWFKLKTKPVYDLGCRSFITWQQRPYLFHCRNVRPVTQQAKFMYQNVTLNPMRTPTGAINSLFLSIQDATSEALVSQQASSQ	not soluble
MGSDKIHHHHHHMTIHISTAPCCWGVDDVKNPYLPAWRDVLGEASEAGYRGVELGPYGYLPLDPAVVSAALGENRLHVVAGTVFDDLVTLTNLPSLLRQTHDICALLKQLPPIDKEPGQRFAGPYLVIIDWGHEERDYAAGHSELAQRLDDGAWQTMMEHIRAICQIAWHEYGIRPVIHPHAGGYIEFADELARLVDDIPDDVAGLCLDTGHLYYAGMDPAASLRTYADRLDYIHFKDIDQSVFDDVMKQRIKFFDACARGVMCPIGRGVIDYPSLYRLIQTLGYEGYITVEQERDPRNANGSLEDVRSSRTYLANVGF	not soluble
MLLSPEQFSRLSEYAAYSRRKLKDMLSDFQQDGKFYSYLSVDGQTINIDGFRAFLIDYFGADLPSDLVDQLFLSFSKPPIKERRTSLFEDAISTVRAKFSESLSGRMAGLNIAGGSGQQTDRSQSSEPQALVCIPEDDVMGPRVANNDSQEPRIPLKPLICTLSLLEADTPENKLDVVFHVYDSDGNGFLDKSEIDGIIEQMMNVARYQQWDTIELEQVIRQMMVDIDYDNDGIVSFDEWRRGGLTNIPLLVLLGFDTEMKEDGSHVWRLRHFTKPTYCNACCSILVGWGGKQGLSCSLCKYTVHERCVRSAATNCIRTYSSRQQDKLYHHWQDANATAKCVKCKATVGVFQGKGCRWCHNYVHHRCMSALAQECDLGALVHHILPPTHIFPAFLERKTSTSLKNHNFSSHSASLLQAVSPSNDCRPLLVLVNPKSGGKQGVKILQKFEYLLNPRQVYDLSKTGPEPGLQLFSTLKNCNILVCGGDGTIGWVLESMDKMTFPHGRPPVAVLPLGTGNDLARCLRWGGGYENENLHKILEQIEKSSLIDMDRWQIKIEITENKSARRASEKGDTPPYSIINNYFSIGVDASIAHRFHVMREKFPEKFNSRMRNKLWYFELGTSETLSSSCKNLHEQIDILCDGESIDLGQDASLEGIALLNIPSIYGGSNLWGRSRKSKGRMPGLFPMKNAEKMQLQTRVQDIGDGLIELVGLESAMQMGQIKAGVRGARRLSQCSTVVIQTHKSFPMQIDGEPWMQPPCIIQITHKNQAKMLVGEFRHILELSINFFLFTAAAPRKRSSWMLLKRQSTNDDN	not soluble
MDLASNLGGKIDKSDVLTAVEKYEQYHVFHGGNEEERKANYTDMVNKYYDLATSFYEYGWGESFHFAQRWKGESLRESIKRHEHFLALQLGIQPGQKVLDVGCGIGGPLREIARFSNSVVTGLNNNEYQITRGKELNRLAGVDKTCNFVKADFMKMPFPENSFDAVYAIEATCHAPDAYGCYKEIYRVLKPGQCFAAYEWCMTDAFDPDNAEHQKIKGEIEIGDGLPDIRLTTKCLEALKQAGFEVIWEKDLAKDSPVPWYLPLDKNHFSLSSFRLTAVGRFITKNMVKILEYIRLAPQGSQRVSNFLEQAAEGLVDGGRREIFTPMYFFLARKPE	soluble
GHMGLEPYEISTLFEQRQAMLQSIKEGVVAVDDRGEVTLINDAAQELLNYRKSQDDEKLSTLSHSWSQVVDVSEVLRDGTPRRDEEITIKDRLLLINTVPVRSNGVIIGAISTFRDKT	soluble
MEPMRIGPRLSVAAVSHVGRRQNNEDFHRVLPLETPAGLLLLLAVADGMGGLEAGEWASKLAIEALSEAARGYAEHLQSGRPAVGLARVMEKGFLLARRRVEREAERPGRRGMGTTLTAFLYADWLKEGVVGHIGDSRAYRFGPTGVFRLTEDHSWVAERLKEGVLTRTEAERHPYRNVLTRALGLPEARFDLVEVRLAPGEGVLLVTDGLYGHVPEEEWRLGRDLQASLEAMVAEALRRGGDDNVTAVALRVE	soluble
MTAGVTTGAFYKHFTSKEALFEEIIQPHINALINMYNEEFAKYLLNLENIDIEKSWRENFNELDPFINYIFENKRIFDLVLFQSAGTKYQDIVEKITSFVTKKTVCCLDKLKTIGMINQNLVFNEEEIHFYIYSFYATFYDILKHSYSKEKTMLLTRRLYQFSVPGWIELLS	not soluble
MSLELNGRALSSTIAPRTQAQRILQTQKISSTDLVVVIGLGNPHLIFEVHKSLEPGQVLLLVDEYPELIFPLWDGILEPVMDVPGRHLFLGHSALNLLWNYLESLPVERVSGIRVFRNTASTALNETYYSDLEIKIRKILSSKMSDLLTKFEFERIWVRNTFVNTANFPDSKNPRTRIESLKGKFLDTPAMLVSAGPSLRSQCEWISKVRDKVFLFSCDTSFKALLKFGIVPDGVITLDAQTHSFFHFMGAESSNVPLFADLVSSPSILRSQKFTKIVHSLSAKYVVDASGEFKREVTAGSKTAEKLLGPIGDIQSGGSVATTAFDLLRNLGCKPIFLVGQDLAYSGREEGHHHHHH	not soluble
MGSDKIHHHHHHMRRVISIFRKLSAVYCHTGNFAEGIRVCKYALGRFTEMEDKYKCIFTFNMSLYYNYLGEYGKALNAITGFESVIKATYEDRYYKVLLLKADCYYGAERYAESLSIYNKLISITLKDDFNNLCVYYNNMTQVYLRMGKRDMAVNCINTVINNLHNISDDFEALPQIYAELGKSYLMMADNDKSIKYLTIALKLSKDFKYYSVTKDILNELSKIKGNSNKLKLKDEFIILTENMGRSYDSLNHSLVFNIIQYYTRLGDVASINELCEYCKERKVG	not soluble
MGSDKIHHHHHHACGNSDGAGEDPGVPYLAKKGEPVDGVRIGWDYGTIRQLATRGGYPRSIRLQDNTVVAVYENYDTGYEMRCSTDEGSTWGDPVILFPIHSITNDKGTARINIANSEIIQLANGDLLAACNYRPQTPEITPFAIAVRRSTDNGVTWSDPQIIYEAEPRFSDGCWEPSFLQLPNEEVQVYFANEGPYTHSNEQEISMMTSVDNGKTWGGYKTVCFRAGSRDGMPVSKVVGDEIVCVIEDCGFVTFKPYTVRTKLSDNWSSPVLADSPNRAMALGEPVEDWIYMGAPYLGVLPTGETLLSYQVDDIRHDDQLGDRLPYSTMEVAIGDKNARNFVRRTRPFPVPAGKHAVWPSVAVWDANTIAALATSNYQGGTEAPFFMKGHVMRDLEVNSSDIVNYPIFIGHTGICNLRLGVGKDADNLYITCKVKDGELYSGGQGTQKGSGVFIYLDTKNECLKEPAEGVYKVWCSYKGDITVWQGNKGKWENSELEGLQITPSVVSGGYELAFTIPLNRSFNKDAMRLCATLSTKTYTETLVHSNADRSCTWMKMNLGGH	not soluble

Reference: the DeepSol protein solubility set
